Data published in patent US20170088631A1.

Columns and labels:
[1] = biological target: Carcinoembryonic Antigen (CEA) (human) (UniProt P06731); assay: SPR at 25 C; IL-2 wt
[2] = biological target: IL-2R βγ heterodimer on cells (NK92 cells; human NK cells and CD8+ T cells) (human) (UniProt P14784); assay: cell-based or functional assay
[3] = biological target: human IL-2R βγ heterodimer (IL-2R β subunit-Fc(hole) / IL-2R γ subunit-Fc(knob) fusion) (human); assay: SPR, human IL-2R βγ heterodimer immobilized on the chip, construct as analyte, 25 C; apparent KD, 1:1 fit
[4] = biological target: human FAP expressed on stably transfected HEK 293 cells (human) (UniProt Q12884); assay: flow cytometry on HEK293 cells stably transfected with human FAP, 4 C, FITC anti-human F(ab')2 detection
[5] = biological target: human Fibroblast Activation Protein (FAP), recombinant (human) (UniProt Q12884); assay: SPR (Biacore), His-tagged human FAP captured by anti-His antibody, construct as analyte, 25 C; apparent bivalent affinity (avidity), 1:1 fit
[6] = biological target: Carcinoembryonic Antigen (CEA) (human) (UniProt P06731); assay: SPR at 25 C; IL-2 qm

Chain of Carcinoembryonic Antigen (CEA) (human) (P06731 35-685 limits assumed): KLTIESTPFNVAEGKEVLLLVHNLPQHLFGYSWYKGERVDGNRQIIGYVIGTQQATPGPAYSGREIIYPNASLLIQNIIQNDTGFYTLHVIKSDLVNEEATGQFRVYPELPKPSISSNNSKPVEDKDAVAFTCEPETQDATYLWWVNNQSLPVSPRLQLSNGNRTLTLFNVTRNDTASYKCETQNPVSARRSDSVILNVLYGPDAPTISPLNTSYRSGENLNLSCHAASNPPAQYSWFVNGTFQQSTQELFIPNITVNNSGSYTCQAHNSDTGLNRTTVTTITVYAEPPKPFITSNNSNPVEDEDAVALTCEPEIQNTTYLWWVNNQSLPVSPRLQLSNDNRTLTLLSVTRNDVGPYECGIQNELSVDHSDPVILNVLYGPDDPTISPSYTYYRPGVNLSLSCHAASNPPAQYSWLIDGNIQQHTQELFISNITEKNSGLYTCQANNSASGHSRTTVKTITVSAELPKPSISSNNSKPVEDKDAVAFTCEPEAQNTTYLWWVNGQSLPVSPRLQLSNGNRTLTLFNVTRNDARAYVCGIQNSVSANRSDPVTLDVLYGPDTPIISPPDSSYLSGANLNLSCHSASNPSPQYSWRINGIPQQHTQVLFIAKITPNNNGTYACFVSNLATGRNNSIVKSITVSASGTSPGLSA
Chain of IL-2R βγ heterodimer on cells (NK92 cells; human NK cells and CD8+ T cells) (human) (P14784 27-551, chain 1 of 2): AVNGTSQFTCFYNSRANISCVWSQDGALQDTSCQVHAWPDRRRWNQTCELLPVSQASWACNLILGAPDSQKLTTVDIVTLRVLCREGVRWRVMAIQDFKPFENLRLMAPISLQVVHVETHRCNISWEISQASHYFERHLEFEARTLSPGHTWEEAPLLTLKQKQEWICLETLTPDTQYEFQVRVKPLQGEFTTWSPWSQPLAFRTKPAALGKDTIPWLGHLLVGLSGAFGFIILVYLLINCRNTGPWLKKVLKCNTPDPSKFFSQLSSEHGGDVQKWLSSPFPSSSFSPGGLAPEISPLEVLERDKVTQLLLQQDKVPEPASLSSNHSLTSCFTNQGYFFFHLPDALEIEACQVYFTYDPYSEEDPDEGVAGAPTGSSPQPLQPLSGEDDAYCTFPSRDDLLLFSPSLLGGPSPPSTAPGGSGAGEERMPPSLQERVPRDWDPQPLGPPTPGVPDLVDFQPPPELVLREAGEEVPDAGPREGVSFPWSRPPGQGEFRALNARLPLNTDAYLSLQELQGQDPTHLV
Chain of IL-2R βγ heterodimer on cells (NK92 cells; human NK cells and CD8+ T cells) (human) (P31785 23-369, chain 2 of 2, further chain): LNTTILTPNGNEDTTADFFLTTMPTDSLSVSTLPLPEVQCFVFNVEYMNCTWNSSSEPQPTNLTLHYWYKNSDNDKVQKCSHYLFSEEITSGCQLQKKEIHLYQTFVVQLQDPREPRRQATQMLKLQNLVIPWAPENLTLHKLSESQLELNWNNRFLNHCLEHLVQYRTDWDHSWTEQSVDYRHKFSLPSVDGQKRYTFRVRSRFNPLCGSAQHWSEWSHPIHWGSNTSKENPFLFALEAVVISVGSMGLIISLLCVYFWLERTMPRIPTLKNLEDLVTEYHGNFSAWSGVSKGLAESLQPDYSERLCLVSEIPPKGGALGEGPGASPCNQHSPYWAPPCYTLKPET
Chain of human IL-2R βγ heterodimer (IL-2R β subunit-Fc(hole) / IL-2R γ subunit-Fc(knob) fusion) (human) (beta, as listed by the source limits assumed, form in doubt, chain 1 of 2): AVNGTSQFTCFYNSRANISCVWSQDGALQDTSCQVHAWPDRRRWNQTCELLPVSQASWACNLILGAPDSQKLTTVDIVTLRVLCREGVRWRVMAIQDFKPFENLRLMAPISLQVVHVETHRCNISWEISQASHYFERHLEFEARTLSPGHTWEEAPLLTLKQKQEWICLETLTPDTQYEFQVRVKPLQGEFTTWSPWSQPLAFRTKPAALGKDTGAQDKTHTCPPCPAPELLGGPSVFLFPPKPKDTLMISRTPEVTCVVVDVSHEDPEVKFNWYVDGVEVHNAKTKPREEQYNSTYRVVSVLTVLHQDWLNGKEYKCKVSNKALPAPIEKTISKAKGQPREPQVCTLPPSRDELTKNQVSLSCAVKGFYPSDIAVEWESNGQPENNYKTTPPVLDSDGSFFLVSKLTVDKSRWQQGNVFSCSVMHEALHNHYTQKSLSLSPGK
Chain of human IL-2R βγ heterodimer (IL-2R β subunit-Fc(hole) / IL-2R γ subunit-Fc(knob) fusion) (human) (gamma, as listed by the source limits assumed, form in doubt, chain 2 of 2): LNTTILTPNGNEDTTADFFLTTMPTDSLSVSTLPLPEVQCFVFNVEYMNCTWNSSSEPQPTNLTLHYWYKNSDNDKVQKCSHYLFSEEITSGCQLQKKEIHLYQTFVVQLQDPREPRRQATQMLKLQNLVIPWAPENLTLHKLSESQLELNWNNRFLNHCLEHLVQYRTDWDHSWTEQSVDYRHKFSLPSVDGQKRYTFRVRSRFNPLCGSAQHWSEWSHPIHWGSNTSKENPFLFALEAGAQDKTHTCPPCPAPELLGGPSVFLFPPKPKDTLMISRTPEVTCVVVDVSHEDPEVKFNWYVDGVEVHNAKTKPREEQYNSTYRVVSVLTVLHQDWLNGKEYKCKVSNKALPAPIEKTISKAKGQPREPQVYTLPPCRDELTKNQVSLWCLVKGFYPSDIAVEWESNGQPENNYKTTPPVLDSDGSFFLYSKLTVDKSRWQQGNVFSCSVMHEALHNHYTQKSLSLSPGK

Substance: CEA-targeted CH1A1A 98/99 2F1-based IgG-IL-2 wt immunoconjugate
- Kd [1]: 0.47 nM

Substance: FAP-targeted 4G8-based IgG-IL-2 quadruple mutant (qm) immunoconjugate
- fold decrease in STAT5 phosphorylation in NK cells and CD8+ T cells (FACS); potency relative to Proleukin [2]: < 10 fold
- Kd [3]: 5.9 nM
- EC50 [4]: 0.9 nM
- Kd [5]: 0.1 nM

Substance: CEA-targeted CH1A1A 98/99 2F1-based IgG-IL-2 qm immunoconjugate
- Kd [6]: 0.4 nM
